A value given as a limit tells only on which side of the number the result lay.

The target in assay [1] is T1, human MRS without the C-terminal WHEP domain (MRS 1-834) (human, UniProt P56192 1-834).
T1 construct: methionyl-tRNA synthetase, cytosolic, human, residues 1-834; source: E. coli BL21 (DE3), purified (Ni-NTA, size-exclusion chromatography); as complex with AIMP3
T1 sequence (looked up): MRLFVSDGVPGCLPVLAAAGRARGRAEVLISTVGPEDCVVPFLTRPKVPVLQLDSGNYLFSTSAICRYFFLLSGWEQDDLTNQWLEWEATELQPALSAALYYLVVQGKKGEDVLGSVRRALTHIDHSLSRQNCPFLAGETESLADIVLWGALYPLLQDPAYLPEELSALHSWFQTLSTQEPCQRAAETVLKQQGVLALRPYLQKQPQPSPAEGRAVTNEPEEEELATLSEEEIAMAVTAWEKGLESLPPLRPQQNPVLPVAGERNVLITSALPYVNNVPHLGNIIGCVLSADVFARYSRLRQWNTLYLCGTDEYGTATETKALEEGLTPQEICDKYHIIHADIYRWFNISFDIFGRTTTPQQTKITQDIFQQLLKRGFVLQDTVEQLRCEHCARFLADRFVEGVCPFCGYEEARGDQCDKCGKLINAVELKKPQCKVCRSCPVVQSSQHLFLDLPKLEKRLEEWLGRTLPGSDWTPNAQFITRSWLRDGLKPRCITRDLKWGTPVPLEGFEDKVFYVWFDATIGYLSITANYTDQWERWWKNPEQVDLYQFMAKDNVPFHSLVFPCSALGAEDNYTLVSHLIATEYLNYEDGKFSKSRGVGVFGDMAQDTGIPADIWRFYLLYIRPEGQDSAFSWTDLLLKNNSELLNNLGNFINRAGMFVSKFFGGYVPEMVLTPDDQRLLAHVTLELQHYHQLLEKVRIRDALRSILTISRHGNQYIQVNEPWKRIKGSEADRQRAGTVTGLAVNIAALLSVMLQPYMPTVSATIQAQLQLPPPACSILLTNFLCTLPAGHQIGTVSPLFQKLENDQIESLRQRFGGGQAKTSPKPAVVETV
As to the kind of experiment: SEC; Superdex 200 10/300 column, Tris-HCl pH 7.5, 150 mM NaCl; molecular weights from a calibration curve of standards. The note with it: both partners purified. (In general: SEC sorts molecules by how far they enter the pores of the column.)

Assay [2] addresses T2, human cytosolic methionyl-tRNA synthetase, full length (MRS 1-900) (human, UniProt P56192 1-900).
T2 construct: methionyl-tRNA synthetase, cytosolic, human, residues 1-900 (900-residue protein); source: recombinant from pET30a or pQE80L plasmids, obtained as MRS-AIMP3 complex by co-purification
T2 sequence (looked up): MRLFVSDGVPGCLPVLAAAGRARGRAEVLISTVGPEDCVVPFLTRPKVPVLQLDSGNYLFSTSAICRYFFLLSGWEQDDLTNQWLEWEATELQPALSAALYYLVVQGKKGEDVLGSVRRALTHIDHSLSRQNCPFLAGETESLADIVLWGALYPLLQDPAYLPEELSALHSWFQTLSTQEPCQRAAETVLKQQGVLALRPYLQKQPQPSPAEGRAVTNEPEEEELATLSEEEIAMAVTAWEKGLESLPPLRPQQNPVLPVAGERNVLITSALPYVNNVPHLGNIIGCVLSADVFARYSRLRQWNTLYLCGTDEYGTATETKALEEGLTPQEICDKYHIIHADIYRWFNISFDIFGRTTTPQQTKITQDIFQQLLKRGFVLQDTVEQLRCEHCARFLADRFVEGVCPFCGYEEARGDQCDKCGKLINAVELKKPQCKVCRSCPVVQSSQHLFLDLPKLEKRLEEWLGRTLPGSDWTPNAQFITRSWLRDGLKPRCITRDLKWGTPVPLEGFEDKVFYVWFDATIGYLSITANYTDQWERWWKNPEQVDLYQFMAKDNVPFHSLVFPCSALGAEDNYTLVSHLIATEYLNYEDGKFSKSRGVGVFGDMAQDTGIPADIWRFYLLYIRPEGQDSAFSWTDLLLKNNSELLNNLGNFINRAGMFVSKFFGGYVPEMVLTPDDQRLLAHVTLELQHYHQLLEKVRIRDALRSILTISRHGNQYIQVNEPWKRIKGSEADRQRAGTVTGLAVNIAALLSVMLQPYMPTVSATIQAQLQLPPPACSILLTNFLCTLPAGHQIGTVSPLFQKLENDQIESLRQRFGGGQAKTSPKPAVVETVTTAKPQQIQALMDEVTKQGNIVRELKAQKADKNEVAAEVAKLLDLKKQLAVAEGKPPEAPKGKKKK
The assay is described as above. The note with it: both partners purified.

For assay [3], the target named is T3, extended GST domain of human MRS (MRS 1-224) (human, UniProt P56192 1-224).
T3 construct: methionyl-tRNA synthetase, cytosolic, human, residues 1-224 (GST domain and first part of the linker); also called MRSGST; source: recombinant, obtained as MRS_(1-224)-AIMP3 complex by co-purification
T3 sequence (looked up): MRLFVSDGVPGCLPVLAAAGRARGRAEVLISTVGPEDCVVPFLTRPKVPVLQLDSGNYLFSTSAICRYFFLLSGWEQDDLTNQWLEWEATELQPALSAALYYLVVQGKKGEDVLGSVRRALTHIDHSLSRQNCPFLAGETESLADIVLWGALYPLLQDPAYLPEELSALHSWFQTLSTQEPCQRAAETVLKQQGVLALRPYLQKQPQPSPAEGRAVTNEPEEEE
Description: crystal structure; MRS_(1-224)-AIMP3 complex crystallised in 20% PEG 8000, 0.1 M HEPES pH 7.5; molecular replacement; 2.0 A. The note with it: both partners purified.

Assay [4] deals with T4, AIMP3 with the nanoluciferase large subunit at its N-terminus (LgBit-AIMP3) (human, UniProt O43324 1-174).
T4 construct: AIMP3, human; source: CHO-K1 cells, transfected, in live cells; not shown: LgBit (NanoLuc large subunit), N-terminal, kept
T4 sequence (looked up): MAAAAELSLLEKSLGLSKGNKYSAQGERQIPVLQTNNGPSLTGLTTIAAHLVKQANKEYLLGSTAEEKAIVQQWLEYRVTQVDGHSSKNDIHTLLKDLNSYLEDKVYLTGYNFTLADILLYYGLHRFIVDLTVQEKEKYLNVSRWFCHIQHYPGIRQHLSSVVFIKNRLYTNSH
As to the kind of experiment: split reporter (BiFC, NanoBiT); NanoBiT; LgBit on the N- or C-terminus of AIMP3, SmBit on the N- or C-terminus of MRS or on AIMP3; co-expressed in CHO-K1 cells; luminescence measured with cell-permeable substrate. The following applies: partners not purified.

B1: AIMP3 (AARS-interacting multifunctional protein 3) (natural protein, human)
chain: MAAAAELSLLEKSLGLSKGNKYSAQGERQIPVLQTNNGPSLTGLTTIAAHLVKQANKEYLLGSTAEEKAIVQQWLEYRVTQVDGHSSKNDIHTLLKDLNSYLEDKVYLTGYNFTLADILLYYGLHRFIVDLTVQEKEKYLNVSRWFCHIQHYPGIRQHLSSVVFIKNRLYTNSH
notes: AIMP3, human; 'Genes for full-length human MRS (residues 1-900) and AIMP3' were cloned; the earlier structure (PDB 4bvx) used AIMP3 1-169; source: recombinant from pET30a or pQE80L plasmids, co-purified with MRS or MRS_(1-224)
On to B1, for which the binding result in assay [1], in assay [2] and in assay [3] was “binds” in each case.

B2: MRS with the nanoluciferase small subunit at its N-terminus (SmBit-MRS) (enzyme, human, UniProt P56192 1-900, looked up)
chain: MRLFVSDGVPGCLPVLAAAGRARGRAEVLISTVGPEDCVVPFLTRPKVPVLQLDSGNYLFSTSAICRYFFLLSGWEQDDLTNQWLEWEATELQPALSAALYYLVVQGKKGEDVLGSVRRALTHIDHSLSRQNCPFLAGETESLADIVLWGALYPLLQDPAYLPEELSALHSWFQTLSTQEPCQRAAETVLKQQGVLALRPYLQKQPQPSPAEGRAVTNEPEEEELATLSEEEIAMAVTAWEKGLESLPPLRPQQNPVLPVAGERNVLITSALPYVNNVPHLGNIIGCVLSADVFARYSRLRQWNTLYLCGTDEYGTATETKALEEGLTPQEICDKYHIIHADIYRWFNISFDIFGRTTTPQQTKITQDIFQQLLKRGFVLQDTVEQLRCEHCARFLADRFVEGVCPFCGYEEARGDQCDKCGKLINAVELKKPQCKVCRSCPVVQSSQHLFLDLPKLEKRLEEWLGRTLPGSDWTPNAQFITRSWLRDGLKPRCITRDLKWGTPVPLEGFEDKVFYVWFDATIGYLSITANYTDQWERWWKNPEQVDLYQFMAKDNVPFHSLVFPCSALGAEDNYTLVSHLIATEYLNYEDGKFSKSRGVGVFGDMAQDTGIPADIWRFYLLYIRPEGQDSAFSWTDLLLKNNSELLNNLGNFINRAGMFVSKFFGGYVPEMVLTPDDQRLLAHVTLELQHYHQLLEKVRIRDALRSILTISRHGNQYIQVNEPWKRIKGSEADRQRAGTVTGLAVNIAALLSVMLQPYMPTVSATIQAQLQLPPPACSILLTNFLCTLPAGHQIGTVSPLFQKLENDQIESLRQRFGGGQAKTSPKPAVVETVTTAKPQQIQALMDEVTKQGNIVRELKAQKADKNEVAAEVAKLLDLKKQLAVAEGKPPEAPKGKKKK
notes: methionyl-tRNA synthetase, cytosolic, human; source: CHO-K1 cells, transfected, in live cells; not shown: SmBit (NanoLuc small subunit), N-terminal, kept
Turning to B2, the “fold increase of luciferase activity over background” value in assay [4] was more than 120 fold.

Values taken from paper PMC8216282, “Structural basis for the dynamics of human methionyl-tRNA synthetase in multi-tRNA synthetase complexes” (Nucleic Acids Research, 2021).
